B1: DD-Cre: destabilized Cre tagged with one ecDHFR-derived DD sequence; SEQ ID No: 3 (protein)
chain: MVSKYPYDVPDYARSGGSGGMISLIAALAVDYVIGMENAMPWNLPADLAWFKRNTLNKPVIMGRHTWESIGRPLPGRKNIILSSQPSTDDRVTWVKSVDEAIAACGDVPEIMVIGGGRVIEQFLPKAQKLYLTHIDAEVEGDTHFPDYEPDDWESVFSEFHDADAQNSHSYCFEILERRGGSGGSGGKLVPKKKRKVGGSNLLTVHQNLPALPVDATSDEVRKNLMDMFRDRQAFSEHTWKMLLSVCRSWAAWCKLNNRKWFPAEPEDVRDYLLYLQARGLAVKTIQQHLGQLNMLHRRSGLPRPSDSNAVSLVMRRIRKENVDAGERAKQALAFERTDFDQVRSLMENSDRCQDIRNLAFLGIAYNTLLRIAEIARIRVKDISRTDGGRMLIHIGRTKTLVSTAGVEKALSLGVTKLVERWISVSGVADDPNNYLFCRVRKNGVAAPSATSQLSTRALEGIFEATHRLIYGAKDDSGQRYLAWSGHSARVGAARDMARAGVSIPEIMQAGGWTNVNIVMNYIRNLDSETGAMVRLLEDGD
modifications: MISC_FEATURE - HAtag; DOMAIN 21..179 degradation domain; SIGNAL 190..197 Nuclear Localization Signal; Bacteriophage P1
B2: split-Cre: Cre split between Ser152 and Asp153 into N-terminal (a.a. 2-152) and C-terminal (a.a. 153-343) self-assembling fragments; SEQ ID No: 8 (protein)
chain: MVSKYPYDVPDYARSGGSGGKLVPKKKRKVGGSNLLTVHQNLPALPVDATSDEVRKNLMDMFRDRQAFSEHTWKMLLSVCRSWAAWCKLNNRKWFPAEPEDVRDYLLYLQARGLAVKTIQQHLGQLNMLHRRSGLPRPSDSNAVSLVMRRIRKENVDAGERAKQALAFERTDFDQVRSLMENSGSGSGATNFSLLKQAGDVEENPGPLEDRCQDIRNLAFLGIAYNTLLRIAEIARIRVKDISRTDGGRMLIHIGRTKTLVSTAGVEKALSLGVTKLVERWISVSGVADDPNNYLFCRVRKNGVAAPSATSQLSTRALEGIFEATHRLIYGAKDDSGQRYLAWSGHSARVGAARDMARAGVSIPEIMQAGGWTNVNIVMNYIRNLDSETGAMVRLLEDGD
modifications: MISC_FEATURE - HAtag; SIGNAL 23..30 Nuclear Localization Signal; MISC_FEATURE - N-terminal of Cre; MISC_FEATURE - P2A; MISC_FEATURE - C-terminal side of Cre; Bacteriophage P1
B3: DD-sasCre: sasCre tagged with a single DD sequence on the N terminal side of Cre; SEQ ID No: 9 (protein)
chain: MVSKYPYDVPDYARSGGSGGMISLIAALAVDYVIGMENAMPWNLPADLAWFKRNTLNKPVIMGRHTWESIGRPLPGRKNIILSSQPSTDDRVTWVKSVDEAIAACGDVPEIMVIGGGRVIEQFLPKAQKLYLTHIDAEVEGDTHFPDYEPDDWESVFSEFHDADAQNSHSYCFEILERRGGSGGSGGKLVPKKKRKVGGSNLLTVHQNLPALPVDATSDEVRKNLMDMFRDRQAFSEHTWKMLLSVCRSWAAWCKLNNRKWFPAEPEDVRDYLLYLQARGLAVKTIQQHLGQLNMLHRRSGLPRPSDSNAVSLVMRRIRKENVDAGERAKQALAFERTDFDQVRSLMENSGSGSGATNFSLLKQAGDVEENPGPLEDRCQDIRNLAFLGIAYNTLLRIAEIARIRVKDISRTDGGRMLIHIGRTKTLVSTAGVEKALSLGVTKLVERWISVSGVADDPNNYLFCRVRKNGVAAPSATSQLSTRALEGIFEATHRLIYGAKDDSGQRYLAWSGHSARVGAARDMARAGVSIPEIMQAGGWTNVNIVMNYIRNLDSETGAMVRLLEDGD
modifications: MISC_FEATURE - HAtag; DOMAIN 21..179 Degradation Domain; SIGNAL 190..197 Nuclear Localization Signal; MISC_FEATURE - N-terminal side of Cre; MISC_FEATURE - P2A; MISC_FEATURE - C-terminal side of Cre; Bacteriophage P1
B4: SPEED-Cre: split Cre with a DD sequence on each of the N-terminal and C-terminal fragments; SEQ ID No: 10 (protein)
chain: MVSKYPYDVPDYARSGGSGGMISLIAALAVDYVIGMENAMPWNLPADLAWFKRNTLNKPVIMGRHTWESIGRPLPGRKNIILSSQPSTDDRVTWVKSVDEAIAACGDVPEIMVIGGGRVIEQFLPKAQKLYLTHIDAEVEGDTHFPDYEPDDWESVFSEFHDADAQNSHSYCFEILERRGGSGGSGGKLVPKKKRKVGGSNLLTVHQNLPALPVDATSDEVRKNLMDMFRDRQAFSEHTWKMLLSVCRSWAAWCKLNNRKWFPAEPEDVRDYLLYLQARGLAVKTIQQHLGQLNMLHRRSGLPRPSDSNAVSLVMRRIRKENVDAGERAKQALAFERTDFDQVRSLMENSGSGSGATNFSLLKQAGDVEENPGPLEDRCQDIRNLAFLGIAYNTLLRIAEIARIRVKDISRTDGGRMLIHIGRTKTLVSTAGVEKALSLGVTKLVERWISVSGVADDPNNYLFCRVRKNGVAAPSATSQLSTRALEGIFEATHRLIYGAKDDSGQRYLAWSGHSARVGAARDMARAGVSIPEIMQAGGWTNVNIVMNYIRNLDSETGAMVRLLEDGDGGSGGSGGMISLIAALAVDYVIGMENAMPWNLPADLAWFKRNTLNKPVIMGRHTWESIGRPLPGRKNIILSSQPSTDDRVTWVKSVDEAIAACGDVPEIMVIGGGRVIEQFLPKAQKLYLTHIDAEVEGDTHFPDYEPDDWESVFSEFHDADAQNSHSYCFEILERR
modifications: MISC_FEATURE - HAtag; DOMAIN 21..179 Degradation Domain; SIGNAL 190..197 Nuclear Localization Signal; MISC_FEATURE - N-terminal side of Cre; MISC_FEATURE - P2A; MISC_FEATURE - C-terminal side of Cre; DOMAIN 576..734 Degradation Domain; Bacteriophage P1

Assays:
[1] = system: loxP-stop-loxP Fluc reporter in mice liver; experiment: in vivo Cre-loxP recombination, bioluminescence imaging after HTV injection into mice; details: for DNA recombination activity in vivo in the absence of TMP: HTV injection, DMSO I.P., bioluminescence 24 hours after injection; for TMP-dependent DNA recombination activity in vivo: TMP 167 μg/g body weight I.P. 3 hours after HTV injection
Protocol: Experiments using mice were performed in accordance with the Guidelines for Care and Use of Laboratory Animals as stated by the University of Tokyo. In all the experiments, four week-old female Slc: ICR mice (Sankyo Labo Service Corporation, Inc.) were used. The mice were […] with cDNAs encoding destabilized Cre along with the luciferase reporter (loxP-stop-loxP Fluc) at 1:9 ratio, using TransIT-EE Hydrodynamic Delivery Solution (Mirus Bio LLC, Madison). The total amount of the DNA injected into a mouse was 10 μg per mouse. The volume of a delivery solution was set at 0.1 mL per mouse weight (g). After the hydrodynamic (HTV) injection of DNA, the mice were bred for 3 hours, and thereafter, TMP (167 μg/g body weight) or DMSO was intraperitoneally (I.P.) injected into the mice. The total volume of the TMP solution injected into a mouse was 100 μL per mouse weight (g). The intraperitoneally injected mice were bred for further 21 hours. The bioluminescence imaging of the mice was performed 24 hours after the HTV injection of DNA. Prior to the bioluminescence imaging, 100 mM D-luciferin was intraperitoneally injected into the mice. The total volume of the injected D-luciferin solution was 10 μL per mouse weight (g). Three minutes after the D-luciferin injection, the bioluminescence images of the mice were obtained using the Lumazone bioluminescence imager (Nippon Roper) equipped with the Evolve EMCCD camera (Photometrics) for 1 minutes. During the intraperitoneal D-luciferin injection and the bioluminescence imaging, the mice were anaesthetized with isoflurane (Abb Vie) to keep them motionless. The obtained data were analyzed with the SlideBook 4.2 software (Intelligent Innovations Inc.).
Next, the usefulness of SPEED-Cre in a living mouse body, namely, in vivo was examined. Using a hydrodynamic tail vain (HTV) injection method (Liu et al., Gene Ther. 6:1258-1266, 1999), mice liver was we transiently transfected with DD-Cre or SPEED-Cre (FIG. 5a). Three hours after the HTV injection, TMP (167 μg/g body weight) or DMSO was intraperitoneally (I.P.) administered into the DD-Cre- or SPEED-Cre-transfected mice (FIG. 5a). The DNA recombination activity was measured using the bioluminescence of a luciferase reporter as an indicator. […] The DNA recombination ability of DD-Cre in vivo was consistent to the ability in in vitro experiments using the human cell line.

[2] = system: DNA sequence flanked by two loxP sites (loxP-stop-loxP Fluc reporter) in HEK293 cells; experiment: luciferase assay of Cre-loxP DNA recombination in HEK293 cells; format: cell-based, human; details: for background DNA recombination activity (leakage) in the absence of TMP: luciferase reporter; for TMP-dependent DNA recombination activity (induction): TMP 10 nM or 500 nM vs DMSO
Text: For constructing a luciferase reporter for detecting Cre-loxP recombinase activity, the polyadenylation signal (poly(A)) repeated sequence (“stop”)) flanked by two loxP sites ([…]: SEQ ID No: 36) in the same orientation was amplified from Addgene plasmid (ID: 22797). Sequence encoding firefly luciferase (Fluc) was amplified from pGL4.31 vector (Promega). The loxP stop-loxP-Fluc construct was inserted into HindIII and XhoI sites in pcDNA3.1 (+) vector containing the CMV promoter.
HEK293T cells (American Type Culture Collection: ATCC) were cultured at 37° C. under 5% CO2 in Dulbecco's Modified Eagle Medium (DMEM; Thermo Fisher Scientific) supplemented with 10% fetal bovine serum (FBS; Thermo Fisher Scientific), 100 units/ml of penicillin and 100 μg/ml of streptomycin (Thermo Fisher Scientific) and 2 mM GlutaMAX (Thermo Fisher Scientific).
For luciferase assay, HEK 293 cells were plated at 25,000 cells per well on a 96-well flat white microplate (Thermo Fisher Scientific), and were then cultured for 24 hours at 37° C. in 5% CO2. The cells were transfected with cDNAs encoding destabilized Cre along with the luciferase reporter (loxP-stop-loxP Fluc), using X-tremeGENE9 reagent (Merck Millipore) at 37° C. The total amount of DNA was 50 ng per well. Twenty-four hours after the transfection, TMP or DMSO was added into the cells, and the cells were further cultured for 24 hours or 48 hours. Just before the luciferase assay, the medium was replaced with Hanks' balanced salt solution (HBSS) (Thermo Fisher Scientific) containing 0.2 mM D-luciferin potassium salt. Bioluminescence measurement was performed for 1 second per well at room temperature using a Centro XS^3 LB 960 plate-reading luminometer (Berthold Technologies).

| Molecule | DNA recombination activity in vivo in the absence of TMP [1] | TMP-dependent DNA recombination activity in vivo [1] | TMP-dependent DNA recombination activity ([2]; HEK293 cells transfected with 5 ng of expression plasmid, TMP treatment) | background DNA recombination activity (leakage) in the absence of TMP ([2]; HEK293 cells, no TMP) | recombination activity after reduction of the transfection amount ([2]; transfection amount reduced by one 400th, HEK293 cells) | recombination efficiency of the self-assembled split fragments ([2]; N-terminal (a.a. 2-152) and C-terminal (a.a. 153-343) fragments expressed via P2A in HEK293 cells, no TMP) | TMP-dependent DNA recombination activity (induction) ([2]; 5 ng expression plasmid, 24 or 48 hours (FIG. 4d)) | leakage of DNA recombination activity in the absence of TMP as a function of the amount of expression plasmid ([2]; HEK293 cells, plasmid amount varied, no TMP) | TMP-dependent DNA recombination activity (induction) ([2]; expression plasmid in various amounts, 24 or 48 hours (FIGS. 4f and g)) |
| --- | --- | --- | --- | --- | --- | --- | --- | --- | --- |
| B1 | high DNA recombination activity at the same level as iCre | DNA recombination was not induced | does not induce the DNA recombination | almost the same level of the recombination activity of iCre | remained at almost the same level as that before the reduction of the transfection amount |  |  |  |  |
| B2 |  |  |  |  |  | high recombination efficiency comparable to that of iCre |  |  |  |
| B3 |  |  |  | significantly lower activity leakage than DD-Cre 1.4 |  |  |  |  |  |
| B4 | suppressed to low, comparable to a negative control group using the pcDNA3.1 empty vector plasmid | high TMP-dependent DNA recombination activity, comparable to the recombination activity of Cre |  | extremely low level that was comparable to the case of using the pcDNA3.1 empty vector plasmid and the reporter plasmid |  |  | not less than 10 fold | maintained a low level | up to 330 fold |

Reference: patent US20240409960A1, “METHOD FOR CONTROLLING PROTEIN FUNCTION” (The University of Tokyo, priority 2021, published 2024)
